Data on one molecule can be found in paper PMC12822413, “TSHR‐Targeting Nucleic Acid Aptamer Treats Graves' Ophthalmopathy via Novel Allosteric Inhibition”.

This data set has as its target recombinant TSHR-His (UniProt P16473 21-414). Briefly: SPR; 5 mM Mg2+; kon 7.686e4 M-1s-1, koff 9.023e-4 s-1; 25 C; Flow: DPBS, 5 mM MgCl2, 4.5 g/L glucose, 0.1 mg/mL yeast tRNA, 1 mg/mL BSA, 4 C 30 min; SPR: DPBS, 5 mM Mg2+, pH 7.4, 25 C. The settings on record: protein: commercial; tags: His; label: FAM (flow); biotin (pull-down); stem-loops (NUPACK predicted).

recombinant TSHR-His, sequence (P16473 21-414): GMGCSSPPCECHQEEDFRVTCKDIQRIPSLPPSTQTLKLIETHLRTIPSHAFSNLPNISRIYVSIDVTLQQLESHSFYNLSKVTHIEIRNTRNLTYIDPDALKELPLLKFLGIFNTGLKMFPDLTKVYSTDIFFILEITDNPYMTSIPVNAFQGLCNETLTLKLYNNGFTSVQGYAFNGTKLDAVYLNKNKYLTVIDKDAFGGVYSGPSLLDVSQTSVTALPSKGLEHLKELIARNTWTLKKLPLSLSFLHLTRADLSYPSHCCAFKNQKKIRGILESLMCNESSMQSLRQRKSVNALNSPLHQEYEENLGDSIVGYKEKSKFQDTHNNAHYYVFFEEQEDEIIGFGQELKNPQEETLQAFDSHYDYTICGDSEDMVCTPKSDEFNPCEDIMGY

B1: YC3 (structured_DNA)
DNA: ACCGACCGTGCTGGACTCAGATGAACAATCGATGGAAGATTGGGTCGCACCGGCCTCTTTCACTATGAGCGAGCCTGGCG
One may read the Kd as the equilibrium constant for the complex coming apart. B1: the Kd is 11.7 nM.
